How the values were obtained:
[1] = molecular target: SARS-CoV-2 spike S1 subunit (SARS-CoV-2, UniProt P0DTC2 16-685); test: SPR; settings: protein: commercial
MERS-CoV RBD = MERS-CoV RBD (MERS-CoV, UniProt K9N5Q8 367-606); settings: protein: commercial; label: 3'-biotin-TEG (SPR)
SARS-CoV-1 RBD = SARS-CoV-1 RBD (SARS-CoV-1, UniProt P59594 306-527); settings: protein: commercial; label: 3'-biotin-TEG (SPR)

Binder | binding result [1] | Kd (MERS-CoV RBD) | Kd (SARS-CoV-1 RBD)
GGGTGAATCTATGGGGTGGGCAGGGG (XNA) [SPA1-M12] | binds |  | 
GGGTGAATCTATGGGGTGGGCAGGGG (XNA) [SPA1-M13] |  | 4 nM | 8.7 nM
